Experimental data reported in PMC6731260.

Tests used:
[1] = CHX chase, FLAG-ESRRB immunoblot, mESCs; details: glycan lost; control: DMSO
[2] = ESRRB-responsive element luciferase reporter, HEK293T; details: glycan lost
[3] = CHX 12 h, immunoblot, HEK293T; details: glycan lost; control: EGFP-ESRRB wild type
[4] = GFP immunoprecipitation, ubiquitin blot, HEK293T; details: glycan lost; control: wild type
[5] = CHX chase up to 12 h, immunoblot, mESCs; details: glycan lost; control: FLAG-ESRRB wild type

| Protein | degradation_or_half_life [1] | other: transcriptional activity ([2]; control: DMSO) | other: transcriptional activity ([2]; control: FLAG-ESRRB wild type) | degradation_or_half_life [3] | other: ubiquitination [4] | degradation_or_half_life [5] |
| --- | --- | --- | --- | --- | --- | --- |
| ESRRB: Ac45SGlcNAc (OGT inhibitor) (protein) parent chain: MSSEDRHLGSSCGSFIKTEPSSPSSGIDALSHHSPSGSSDASGGFGIALSTHANGLDSPPMFAGAGLGGNPCRKSYEDCTSGIMEDSAIKCEYMLNAIPKRLCLVCGDIASGYHYGVASCEACKAFFKRTIQGNIEYNCPATNECEITKRRRKSCQACRFMKCLKVGMLKEGVRLDRVRGGRQKYKRRLDSENSPYLNLPISPPAKKPLTKIVSNLLGVEQDKLYAMPPNDIPEGDIKALTTLCELADRELVFLINWAKHIPGFPSLTLGDQMSLLQSAWMEILILGIVYRSLPYDDKLAYAEDYIMDEEHSRLVGLLDLYRAILQLVRRYKKLKVEKEEFMILKALALANSDSMYIENLEAVQKLQDLLHEALQDYELSQRHEEPRRAGKLLLTLPLLRQTAAKAVQHFYSVKLQGKVPMHKLFLEMLEAKV | decreases | decreases | – | – | – | – |
| ESRRB: S25A (protein) parent chain: MSSEDRHLGSSCGSFIKTEPSSPSSGIDALSHHSPSGSSDASGGFGIALSTHANGLDSPPMFAGAGLGGNPCRKSYEDCTSGIMEDSAIKCEYMLNAIPKRLCLVCGDIASGYHYGVASCEACKAFFKRTIQGNIEYNCPATNECEITKRRRKSCQACRFMKCLKVGMLKEGVRLDRVRGGRQKYKRRLDSENSPYLNLPISPPAKKPLTKIVSNLLGVEQDKLYAMPPNDIPEGDIKALTTLCELADRELVFLINWAKHIPGFPSLTLGDQMSLLQSAWMEILILGIVYRSLPYDDKLAYAEDYIMDEEHSRLVGLLDLYRAILQLVRRYKKLKVEKEEFMILKALALANSDSMYIENLEAVQKLQDLLHEALQDYELSQRHEEPRRAGKLLLTLPLLRQTAAKAVQHFYSVKLQGKVPMHKLFLEMLEAKV | – | – | decreases | decreases | increases | decreases |
